Laboratory results taken from patent US20230348588A1 (published 2023).

Target: extracellular domain (ECD) of recombinant human Sortilin with a C-terminal HIS tag (ECD-huSortilin-HIS) (UniProt Q99523 78-755)
Test: ELISA

extracellular domain (ECD) of recombinant human Sortilin with a C-terminal HIS tag (ECD-huSortilin-HIS), sequence (Q99523 78-755): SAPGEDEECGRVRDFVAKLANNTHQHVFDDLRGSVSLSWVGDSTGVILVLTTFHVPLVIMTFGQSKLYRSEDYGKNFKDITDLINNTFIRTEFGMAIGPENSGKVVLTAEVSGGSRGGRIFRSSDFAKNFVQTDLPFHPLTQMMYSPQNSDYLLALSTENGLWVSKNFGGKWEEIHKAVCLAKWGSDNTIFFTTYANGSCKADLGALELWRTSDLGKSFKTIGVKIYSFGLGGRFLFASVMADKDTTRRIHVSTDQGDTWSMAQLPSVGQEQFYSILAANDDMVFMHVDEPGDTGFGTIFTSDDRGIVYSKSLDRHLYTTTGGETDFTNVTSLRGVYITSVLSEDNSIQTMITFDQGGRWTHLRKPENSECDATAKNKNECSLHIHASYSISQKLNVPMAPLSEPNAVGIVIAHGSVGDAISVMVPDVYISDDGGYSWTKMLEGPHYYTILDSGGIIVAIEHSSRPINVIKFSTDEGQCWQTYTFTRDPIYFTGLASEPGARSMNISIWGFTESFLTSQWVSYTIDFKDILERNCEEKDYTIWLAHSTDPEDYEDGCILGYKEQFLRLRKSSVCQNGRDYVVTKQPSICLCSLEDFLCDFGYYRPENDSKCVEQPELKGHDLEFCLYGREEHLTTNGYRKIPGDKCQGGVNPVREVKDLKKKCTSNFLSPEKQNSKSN

EC50: 5.8 nM
B1: mouse monoclonal antibody 4N2 (antibody, V domains shown)
VH: EVKLVESGGGLVKPGGSLKLSCGASGFTFSNYVMSWVRQTPERRLEWVATISGGGRYSYYPDSVKGRFTISRDNAKNNLYLQMSSLRSEDTALYYCGRQDDYDSFPYCGQGTLVTVSV
VL: DILLTQSPAILSVSLGERVSFSCRASQSIGTSIHWFQLRTNGSPRLLIKYASEPISGIPSRFSGSGSGTDFTLSINSVESEDIADYFCQQSKSWPITFGTGTKLELK
